Earlier results, collected in patent US20250352622A1, “GLP-1 FORMULATIONS AND THEIR USES” (Rose Pharma Inc., priority 2024, published 2025).
Like-named read-outs stand apart in the source and are kept apart here.

Substance	t1/2 (in vivo)	further results
dulaglutide		t1/2 (longer acting GLP-1 agonist): about 90 hours
lixisenatide		half-life (in vivo): about 3 hours
semaglutide	about 1 week	
tirzepatide	about 5 days	
